Results published in patent publication US20210054355A1 (NEW YORK UNIVERSITY, published 2021).

Biological target: T1, FGFR1c^ecto (human FGFR1c ligand-binding domain, D2, D3 and D2-D3 linker) (human, UniProt P11362 142-365)
T1 sequence: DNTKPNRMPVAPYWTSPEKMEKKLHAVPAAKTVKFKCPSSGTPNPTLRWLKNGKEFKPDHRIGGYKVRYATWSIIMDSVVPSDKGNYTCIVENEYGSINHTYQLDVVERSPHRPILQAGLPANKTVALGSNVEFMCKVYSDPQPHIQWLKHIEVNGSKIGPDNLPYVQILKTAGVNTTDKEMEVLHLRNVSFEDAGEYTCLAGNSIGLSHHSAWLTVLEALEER
Assay: crystal structure of the ternary complex, 3.0 Å
Protocol: To prepare the FGF23-FGFR1c^ecto-αKlotho^ecto complex, its purified components were mixed at a molar ratio of 1.2:1.2:1 and spin-concentrated using an Amicon Ultra-15 concentrator (#UFC901024, Merck Millipore, Germany). The concentrated sample was applied to a Superdex 200 column (GE Healthcare, USA) and eluted isocratically in 25 mM HEPES pH 7.5 buffer containing 500 mM NaCl and 100 mM (NH₄)₂SO₄. Column peak fractions were analyzed by SDS-PAGE and peak fractions containing the ternary complex were concentrated to 7 mg/ml. Concentrated ternary complex was screened for crystallization by sitting drop vapor diffusion. A range of commercially available crystallization screen kits was used: Protein Complex Suite (#130715), Classics Suite (#130701), Classics II Suite (#130723), and Classics Lite Suite (#130702) from Qiagen, Germany; Crystal Screen (#HR2-110), Crystal Screen 2 (#HR2-112), Crystal Screen Lite (#HR2-128), PEG/Ion Screen (#HR2-126), and PEGRx1 (#HR2-082) from Hampton Research, USA; and PEG Grid Screening Kit (#36436) and Crystallization Cryo Kit (#75403) from Sigma-Aldrich, USA. Drops consisting of 100 nl reservoir solution and 100 nl protein complex solution were equilibrated against 100 μl well volume set up in 96-well plates (Fisher Scientific, USA) using a Mosquito crystallization robot (TTP Labtech, U.K.). […]

- binding result: binds
B1: FGF23^WT (human FGF23 Y25 to S205 with R176Q/R179Q, protease-resistant minimal protein) (ligand)
chain: YPNASPLLGSSWGGLIHLYTATARNSYHLQIHKNGHVDGAPHQTIYSALMIRSEDAGFVVITGVMSRRYLCMDFRGNIFGSHYFDPENCRFQHQTLENGYDVYHSPQYHFLVSLGRAKRAFLPGMNPPPYSQFLSRRNEIPLIHFNTPIPRQHTQSAEDDSERDPLNVLKPRARMTPAPAS
notes: also called wild-type FGF23; minimal FGF23
